Laboratory results as given in paper PMC9468648, “Profiling of transcriptional regulators associated with starch biosynthesis in sorghum (Sorghum bicolor L.)”.

Tests used:
Assay in all cases: EMSA; Chemiluminescent EMSA Kit (Beyotime) per manufacturer's instructions; buffer, salt, pH and temperature not stated
Details in all cases: protein: recombinant; tags: His (pET32a fusion); chain copies: 2; label: 5' biotin; blunt
[1] = target: T1, SORBI_3009G086800 (NAC TF) (UniProt C5YV73 1-402)
T1 sequence: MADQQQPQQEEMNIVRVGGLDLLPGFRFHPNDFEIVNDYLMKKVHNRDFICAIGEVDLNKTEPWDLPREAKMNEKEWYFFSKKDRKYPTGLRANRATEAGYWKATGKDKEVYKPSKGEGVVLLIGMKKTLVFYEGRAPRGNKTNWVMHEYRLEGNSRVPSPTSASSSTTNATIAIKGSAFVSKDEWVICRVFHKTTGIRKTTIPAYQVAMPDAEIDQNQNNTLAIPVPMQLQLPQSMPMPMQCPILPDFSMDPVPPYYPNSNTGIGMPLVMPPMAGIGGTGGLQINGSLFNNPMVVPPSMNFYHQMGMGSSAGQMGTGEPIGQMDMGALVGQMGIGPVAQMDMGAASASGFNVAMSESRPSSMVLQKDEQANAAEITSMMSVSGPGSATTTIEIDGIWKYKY

[2] = target: T2, SORBI_3005G056300 (NAC TF) (UniProt C5Y5Q6 1-283)
T2 sequence: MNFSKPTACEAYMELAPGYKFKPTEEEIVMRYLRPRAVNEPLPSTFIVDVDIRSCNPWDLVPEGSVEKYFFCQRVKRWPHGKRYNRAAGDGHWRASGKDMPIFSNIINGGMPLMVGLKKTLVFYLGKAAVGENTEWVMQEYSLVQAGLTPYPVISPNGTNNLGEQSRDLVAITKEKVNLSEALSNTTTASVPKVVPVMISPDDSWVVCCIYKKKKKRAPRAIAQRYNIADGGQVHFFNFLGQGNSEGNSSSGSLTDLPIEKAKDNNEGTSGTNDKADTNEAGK

[3] = target: T3, SORBI_3003G105600 (NAC TF) (UniProt C5XF21 1-400)
T3 sequence: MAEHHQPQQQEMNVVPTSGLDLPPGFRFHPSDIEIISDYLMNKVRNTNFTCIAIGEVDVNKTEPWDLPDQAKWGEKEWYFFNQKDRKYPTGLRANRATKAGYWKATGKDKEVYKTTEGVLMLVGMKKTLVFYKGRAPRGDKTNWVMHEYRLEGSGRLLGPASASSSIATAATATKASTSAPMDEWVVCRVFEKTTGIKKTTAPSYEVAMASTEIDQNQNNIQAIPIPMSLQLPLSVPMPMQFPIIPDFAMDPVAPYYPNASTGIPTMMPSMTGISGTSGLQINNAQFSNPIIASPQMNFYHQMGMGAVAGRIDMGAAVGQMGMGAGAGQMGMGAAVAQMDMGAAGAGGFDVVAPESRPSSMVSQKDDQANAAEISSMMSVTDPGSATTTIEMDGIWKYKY

Measured: binding result

B1: 4x CACGCAA repeat probe (dsDNA)
DNA 1: TCACGCAACACGCAACACGCAACACGCAAG
DNA 2: CTTGCGTGTTGCGTGTTGCGTGTTGCGTGA
binds: all assays above
